Results: patent US7041458B2, “Methods and reagents for determining protein S” (priority 1996, dated 2006)
Like-named read-outs stand apart in the source and are kept apart here. One block for each molecule: values may come before it. Bridges are numbered along the chain shown (N, C = ends). Where no end group is shown, it is not given here.

Tests used:
[1] = molecular target: T1, protein S-C4BP interaction (Homo sapiens, UniProt P20851); assay: Peptide inhibition of the protein S-C4BP interaction in microtiter plates (equilibrium binding assay, 125I-labelled protein S tracer, immobilized C4BP); conditions: displacement of 125I-labelled protein S from immobilized C4BP, EDTA buffer; read-out: half-maximum inhibition
T1 construct: C4BPβ was first isolated from human plasma in the form of the protein S-C4BP complex; from tissue; host or cells: human plasma
T1 sequence (P20851 18-252): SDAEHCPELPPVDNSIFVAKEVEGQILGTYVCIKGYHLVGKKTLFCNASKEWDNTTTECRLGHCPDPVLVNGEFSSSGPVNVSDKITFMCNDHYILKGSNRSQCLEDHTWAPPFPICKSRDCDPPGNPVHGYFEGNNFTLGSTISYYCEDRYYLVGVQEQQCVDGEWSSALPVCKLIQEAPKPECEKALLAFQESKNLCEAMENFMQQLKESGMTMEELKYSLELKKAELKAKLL
T1 sequence (P04003 49-597 partner): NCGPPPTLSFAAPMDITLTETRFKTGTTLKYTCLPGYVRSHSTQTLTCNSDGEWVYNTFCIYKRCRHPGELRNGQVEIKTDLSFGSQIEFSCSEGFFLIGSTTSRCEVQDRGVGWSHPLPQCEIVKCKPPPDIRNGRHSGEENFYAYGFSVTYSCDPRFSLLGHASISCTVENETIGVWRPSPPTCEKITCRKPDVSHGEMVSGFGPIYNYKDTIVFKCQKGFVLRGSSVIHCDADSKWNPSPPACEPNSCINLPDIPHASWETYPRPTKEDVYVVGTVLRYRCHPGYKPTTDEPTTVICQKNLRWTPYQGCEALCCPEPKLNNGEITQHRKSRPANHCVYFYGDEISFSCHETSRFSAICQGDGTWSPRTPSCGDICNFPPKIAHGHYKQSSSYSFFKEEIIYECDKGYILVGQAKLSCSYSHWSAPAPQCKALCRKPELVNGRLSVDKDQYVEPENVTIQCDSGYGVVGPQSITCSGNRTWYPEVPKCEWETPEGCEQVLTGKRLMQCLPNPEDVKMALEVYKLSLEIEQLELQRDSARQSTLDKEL
Description: D. Peptide Inhibition of the Protein S-C4BP Interaction in Microtiter Plates.
(§1) Microtiter plates were coated with C4BP, 50 μl/well, 10 μg/ml in 0.075 M sodium carbonate buffer, pH 9.6. The plates were incubated over night at 4° C. and then washed with TBS, pH 7.5, containing 0.1% Tween 20. […] The wells were then washed and the amount of bound protein S detected using a γ-counter.
As disclosed in Section D, the synthetic peptides were tested for their ability to displace binding of a ^125I-labelled protein S tracer to immobilized C4BP (FIG. 5A).
(§2) In these figures, peptide inhibition of the protein S-C4BP interaction is shown as the amount of protein S bound (relative to the amount bound in the absence of peptide) versus concentration of the nine peptides listed in Table 1: (o) SL1, (♦) SL2, (□) SL3, (+) SL4, (⋄) SL5, (●) SL6, (▾) SL7, (Δ) BD4 & (∇) BD6. In FIG. 5A, the result from an equilibrium binding assay using immobilized C4BP in microtiter wells and radiolabelled human protein S is shown. […] In FIG. 5B, the result from surface plasmon resonance assay on a BIAcore™ sensorchip is shown. The amount of protein S bound, X, was calculated from the observed signal intensity, S, compared to the maximum signal intensity in the absence of peptide Smax, as X=(S−0.04)/0.96 Smax.

[2] = molecular target: T1, protein S-C4BP interaction; assay: Peptide inhibition of the protein S-C4BP interaction by surface plasmon resonance (BIAcore, immobilized C4BP); format: binding; conditions: for inhibition of the protein S-C4BP interaction (summary of the above tests): up to 2000-fold excess over protein S
Description: E. Peptide Inhibition of the Protein S-C4BP Interaction According to Surface Plasmon Resonance Studies.
The surface plasmon resonance studies were performed using a BIAcore™ apparatus from Pharmacia Biosensor AB. Immobilization of C4BP to the dextran coated gold surface of a sensorchip was performed at a flow rate of 5 μl/min, using HC as flow buffer. Equal volumes of 0.1 M NHS and 0.1 M EDC were first mixed, whereafter 30 μl of the mixture was flown over the sensorchip surface to activate the carboxymethylated dextran. C4BP was then injected over the sensorchip (40 μl of a 60 μg/ml solution in 10 mM NaOAc at pH 4.75), whereafter unreacted NHS-ester groups were blocked by 15 μl 1M ethanolamine (pH 8.5). The system was regenerated by addition of 15 μl 0.1 M HCl, which removes all non-covalently bound molecules. The immobilized amount of C4BP was 8000 RU. Protein S association was monitored with 50 nM human protein S in HC buffer in a continuous flow of 1 μl per minute during 45 minutes. The ability of each peptide to inhibit the protein S binding was studied by following the association to C4BP for mixtures of protein S and peptide. In BIAcore™, the total amount of bound material is measured, and the peptides are 25-fold smaller than protein S, inhibition of protein S-binding by peptide binding will drastically lower the observed response during the association phase. The percent protein S bound, X, was calculated as X=(S−0.04Smax)/0.96Smax where S is the measured response and Smax is the response obtained in the absence of peptide.
As disclosed in Section E, the ability of the synthetic peptides to inhibit the binding of human protein S to C4BP was also studied using surface plasmon resonance on a BIA-core™ system.
as §2

[3] = molecular target: T2, C4BP (Homo sapiens, UniProt P20851); assay: Fluorescence polarization titration of peptides with C4BP (results not shown); format: binding; conditions: read-out: dissociation constant KD of the peptide-C4BP complex
T2 sequence (P20851 18-252): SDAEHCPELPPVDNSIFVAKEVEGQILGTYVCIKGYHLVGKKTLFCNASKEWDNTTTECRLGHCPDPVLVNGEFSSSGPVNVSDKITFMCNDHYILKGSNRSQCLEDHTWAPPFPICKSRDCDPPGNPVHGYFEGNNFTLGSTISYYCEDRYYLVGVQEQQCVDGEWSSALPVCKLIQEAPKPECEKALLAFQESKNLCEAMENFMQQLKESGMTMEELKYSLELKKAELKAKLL
T2 sequence (P04003 49-597 partner): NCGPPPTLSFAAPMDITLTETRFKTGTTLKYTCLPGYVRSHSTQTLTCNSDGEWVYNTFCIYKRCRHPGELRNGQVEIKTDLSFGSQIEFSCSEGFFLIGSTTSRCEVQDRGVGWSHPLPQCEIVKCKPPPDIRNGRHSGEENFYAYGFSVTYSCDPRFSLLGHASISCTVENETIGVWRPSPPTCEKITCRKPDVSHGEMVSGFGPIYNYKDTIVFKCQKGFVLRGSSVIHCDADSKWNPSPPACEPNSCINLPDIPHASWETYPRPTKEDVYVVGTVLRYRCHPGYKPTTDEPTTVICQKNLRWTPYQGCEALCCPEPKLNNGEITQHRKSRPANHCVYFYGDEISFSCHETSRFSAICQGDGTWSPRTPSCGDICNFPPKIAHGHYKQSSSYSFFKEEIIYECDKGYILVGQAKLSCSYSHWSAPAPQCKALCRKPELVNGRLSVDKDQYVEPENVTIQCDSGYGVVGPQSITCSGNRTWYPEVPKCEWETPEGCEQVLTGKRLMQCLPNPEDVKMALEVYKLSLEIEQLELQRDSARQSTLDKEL
Source text: The difference in KD observed for the peptide and protein might in part be due to post translational modification of the protein.

[4] = molecular target: T2, C4BP; conditions: Ca2+-free; read-out: dissociation constant KD of the complex with C4BP; cited from earlier work
[5] = molecular target: T3, C4b-binding protein (C4BP), species containing the protein S binding β-chain, purified from human plasma (human, UniProt P04003 49-597; P20851 18-252); assay: unlabelled protein S competing with 125I-protein S tracer for immobilised C4BP in microtiter wells, EDTA buffer
T3 construct: mature; Isolated from human plasma as the protein S-C4BP complex, dissociated in 3 M guanidine-HCl and purified further; predominantly C4BPβ, and a minor proportion lacking the β-chain may be present; Immobilised on microtiter wells or on a CM5 sensorchip; also called C4BPβ
T3 sequence (looked up) 1: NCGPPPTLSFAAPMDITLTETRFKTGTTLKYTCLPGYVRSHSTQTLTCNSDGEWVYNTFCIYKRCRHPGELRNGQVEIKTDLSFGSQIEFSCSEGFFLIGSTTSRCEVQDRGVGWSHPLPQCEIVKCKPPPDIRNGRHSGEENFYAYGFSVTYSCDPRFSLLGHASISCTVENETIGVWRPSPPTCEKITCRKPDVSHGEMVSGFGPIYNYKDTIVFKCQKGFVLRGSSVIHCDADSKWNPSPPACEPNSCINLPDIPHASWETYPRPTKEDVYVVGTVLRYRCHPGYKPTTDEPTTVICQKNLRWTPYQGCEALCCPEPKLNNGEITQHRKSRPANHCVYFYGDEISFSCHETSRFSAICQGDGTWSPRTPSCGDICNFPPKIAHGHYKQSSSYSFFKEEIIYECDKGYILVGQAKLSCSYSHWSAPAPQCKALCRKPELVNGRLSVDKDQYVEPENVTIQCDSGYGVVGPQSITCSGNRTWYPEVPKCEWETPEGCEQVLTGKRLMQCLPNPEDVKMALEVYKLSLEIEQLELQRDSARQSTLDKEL
T3 sequence (looked up) 2: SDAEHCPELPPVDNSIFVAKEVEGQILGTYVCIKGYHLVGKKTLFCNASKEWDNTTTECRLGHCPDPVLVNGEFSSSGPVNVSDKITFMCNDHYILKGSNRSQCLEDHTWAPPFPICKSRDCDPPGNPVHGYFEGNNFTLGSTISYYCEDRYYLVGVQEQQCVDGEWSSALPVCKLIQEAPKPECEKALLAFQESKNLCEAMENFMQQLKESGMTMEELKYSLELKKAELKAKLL
Description: as §1
as §2, with “(◊)” for “(⋄)”, “(▼)” for “(▾)”, “(▽)” for “(∇)”, “$Smax$,” for “Smax,”, “$X=(S-0.04)/0.96\ Smax$.” for “X=(S−0.04)/0.96 Smax.”

[6] = molecular target: T3, C4b-binding protein (C4BP), species …; assay: competition, equilibrium binding in microtiter wells: peptide against a trace of 125I-labelled human protein S on immobilised C4BP, TBS with 10 mM EDTA, 4 °C overnight, gamma counting
Description: as §1
as §2, with “(◊)” for “(⋄)”, “(▼)” for “(▾)”, “(▽)” for “(∇)”, “$Smax$,” for “Smax,”, “$X=(S-0.04)/0.96\ Smax$.” for “X=(S−0.04)/0.96 Smax.”

[7] = molecular target: T3, C4b-binding protein (C4BP), species …; assay: SPR (BIAcore) competition: 50 nM human protein S mixed with peptide, flowed over immobilised C4BP (8000 RU), HC buffer; percent protein S bound calculated from the response
Description: The surface plasmon resonance studies were performed using a BIAcore™ apparatus from Pharmacia Biosensor AB. Immobilization of C4BP to the dextran coated gold surface of a sensorchip was performed at a flow rate of 5 μl/min, using HC as flow buffer. Equal volumes of 0.1 M NHS and 0.1 M EDC were first mixed, whereafter 30 μl of the mixture was flown over the sensorchip surface to activate the carboxymethylated dextran. C4BP was then injected over the sensorchip (40 μl of a 60 μg/ml solution in 10 mM NaOAc at pH 4.75), whereafter unreacted NHS-ester groups were blocked by 15 μl 1M ethanolamine (pH 8.5). […] Protein S association was monitored with 50 nM human protein S in HC buffer in a continuous flow of 1 μl per minute during 45 minutes. […] The percent protein S bound, X, was calculated as $$X=(S-0.04Smax)/0.96Smax$$
In these figures, peptide inhibition of the protein S-C4BP interaction is shown as the amount of protein S bound (relative to the amount bound in the absence of peptide) versus concentration of the nine peptides listed in Table 1: (o) SL1, (♦) SL2, (□) SL3, (+) SL4, (◊) SL5, (●) SL6, (▼) SL7, (Δ) BD4 & (▽) BD6. […] The amount of protein S bound, X, was calculated from the observed signal intensity, S, compared to the maximum signal intensity in the absence of peptide $Smax$, as $X=(S-0.04)/0.96\ Smax$.

Molecule: plasma purified human protein S: plasma purified human protein S, unlabelled competitor of radiolabelled protein S
Kd [4]: 0.0065 µM

B1: plasma purified human protein S (other, UniProt P07225 42-676, looked up)
chain: ANSLLEETKQGNLERECIEELCNKEEAREVFENDPETDYFYPKYLVCLRSFQTGLFTAARQSTNAYPDLRSCVNAIPDQCSPLPCNEDGYMSCKDGKASFTCTCKPGWQGEKCEFDINECKDPSNINGGCSQICDNTPGSYHCSCKNGFVMLSNKKDCKDVDECSLKPSICGTAVCKNIPGDFECECPEGYRYNLKSKSCEDIDECSENMCAQLCVNYPGGYTCYCDGKKGFKLAQDQKSCEVVSVCLPLNLDTKYELLYLAEQFAGVVLYLKFRLPEISRFSAEFDFRTYDSEGVILYAESIDHSAWLLIALRGGKIEVQLKNEHTSKITTGGDVINNGLWNMVSVEELEHSISIKIAKEAVMDINKPGPLFKPENGLLETKVYFAGFPRKVESELIKPINPRLDGCIRSWNLMKQGASGIKEIIQEKQNKHCLVTVEKGSYYPGSGIAQFHIDYNNVSSAEGWHVNVTLNIRPSTGTGVMLALVSGNNTVPFAVSLVDSTSEKSQDILLSVENTVIYRIQALSLCSDQQSHLEFRVNRNNLELSTPLKIETISHEDLQRQLAVLDKAMKAKVATYLGGLPDVPFSATPVNAFYNGCMEVNINGVQLDLDEAISKHNDIRAHSCPSVWKKTKNS
modifications: 125I-labelled where used as tracer in the microtiter equilibrium assay
notes: mature; also called PS; free protein S
IC50 [5]: ~2 µM

Molecule: LVTVEKGSYYPGSGIAQFHIDYNNVSSAEGWHVN [SL7 synthetic peptide (protein S residues 435-468)]
IC50 (read off the curve) [6]: ~90 µM

Molecule: SGIAQFHIDYNNVSSAEGWHVN [SL6 synthetic peptide (protein S residues 447-468)]
IC50 (read off the curve) [7]: ~30 µM

Molecule: EKGSYYPGSGIAQFHIDYNNVS [SL2 synthetic peptide (protein S residues 439-460)]
IC50 (read off the curve) [7]: ~40 µM
IC50 (read off the curve) [6]: ~200 µM

Now from value to molecule, other results behind:

IC50 [1]: 100 to 200 µM
IC50 ([2]; 50 nM human protein S, immobilized C4BP, read-out: half maximum inhibition, peptide concentration): 30 to 120 µM
Kd [3]: ≤ 1 µM
Molecule: SGIAQFHIDYNNVSSAEGWHVN [SL6]

inhibition of the protein S-C4BP interaction (summary of the above tests) [2]: gave no inhibitory effect
inhibition of the protein S-C4BP interaction (summary of the above tests) ([2]; listed as 595–628): did not show any inhibitory effect
Molecule: YNGCMEVNINGVQLDLDEAISKHNDIRAHSCPSV (disulfide 4-31 (inferred)) [BD6, reference compound]
effect on binding of human protein S to C4BP (SPR response) ([2]; 50 nM protein S, peptide up to 100 μM (2000-fold excess)): the same response was observed as with protein S alone
